Values of other authors as cited in US20200179530A1, “TARGETED DELIVERY OF THERAPEUTIC AGENTS AND IMAGING REAGENTS TO PANCREATIC CANCER CELLS” (UNIVERSITY OF MIAMI, priority 2016, published 2020).

| Substance | half-life (tissue) | half-life in tissue |
| --- | --- | --- |
| native avidin: native avidin, comparator for AvidinOX half-life | about two |  |
| AvidinOX: avidin variant containing aldehyde groups, generated by ligand-assisted sugar oxidation of avidin by sodium periodate |  | weeks |
